Numbering of substitutions follows the chain as printed.
T1: human EphB3 (Homo sapiens, UniProt P54753)
T1 construct: a protein of the extracellular region of each human Eph receptor fused with the SEAP protein and the His tag; made in house; host or cells: Expi293F cells
T1 sequence (P54753 34-559 limits assumed): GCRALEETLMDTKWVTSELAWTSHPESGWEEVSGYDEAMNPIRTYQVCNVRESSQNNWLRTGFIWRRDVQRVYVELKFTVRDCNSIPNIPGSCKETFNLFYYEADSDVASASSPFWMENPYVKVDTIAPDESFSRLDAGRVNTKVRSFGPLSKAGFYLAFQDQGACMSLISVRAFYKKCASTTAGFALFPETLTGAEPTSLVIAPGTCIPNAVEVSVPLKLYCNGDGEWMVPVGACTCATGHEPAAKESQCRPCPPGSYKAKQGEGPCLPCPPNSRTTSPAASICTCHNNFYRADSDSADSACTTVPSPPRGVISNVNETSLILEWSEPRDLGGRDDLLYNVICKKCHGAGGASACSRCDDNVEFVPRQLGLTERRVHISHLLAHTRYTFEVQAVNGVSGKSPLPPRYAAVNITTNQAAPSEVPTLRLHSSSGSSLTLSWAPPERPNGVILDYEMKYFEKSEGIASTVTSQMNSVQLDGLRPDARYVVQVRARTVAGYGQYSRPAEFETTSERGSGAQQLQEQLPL

T2: human EphA7 (Homo sapiens, UniProt Q15375)
T2 construct: a protein of the extracellular region of each human Eph receptor fused with the SEAP protein and the His tag; made in house; host or cells: Expi293F cells (culture supernatant)
T2 sequence (Q15375 28-555 limits assumed): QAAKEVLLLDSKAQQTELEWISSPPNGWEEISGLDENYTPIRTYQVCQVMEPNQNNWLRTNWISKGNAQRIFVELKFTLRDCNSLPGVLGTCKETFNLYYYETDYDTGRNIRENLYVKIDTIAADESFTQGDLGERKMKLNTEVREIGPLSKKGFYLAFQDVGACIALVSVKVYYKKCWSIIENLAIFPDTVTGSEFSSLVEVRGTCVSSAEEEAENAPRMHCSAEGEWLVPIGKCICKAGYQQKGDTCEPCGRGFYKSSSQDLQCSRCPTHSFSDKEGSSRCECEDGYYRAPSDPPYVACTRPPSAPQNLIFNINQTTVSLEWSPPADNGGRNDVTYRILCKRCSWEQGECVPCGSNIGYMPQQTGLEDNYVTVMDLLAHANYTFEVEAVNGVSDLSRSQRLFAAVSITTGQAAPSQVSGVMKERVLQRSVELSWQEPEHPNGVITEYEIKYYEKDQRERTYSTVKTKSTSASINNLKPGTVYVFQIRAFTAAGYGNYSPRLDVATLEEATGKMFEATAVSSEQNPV

T3: human EphA3 (Homo sapiens, UniProt P29320)
T3 construct: a protein of the extracellular region of each human Eph receptor fused with the SEAP protein and the His tag; made in house; host or cells: Expi293F cells (culture supernatant)
T3 sequence (P29320 21-541 limits assumed): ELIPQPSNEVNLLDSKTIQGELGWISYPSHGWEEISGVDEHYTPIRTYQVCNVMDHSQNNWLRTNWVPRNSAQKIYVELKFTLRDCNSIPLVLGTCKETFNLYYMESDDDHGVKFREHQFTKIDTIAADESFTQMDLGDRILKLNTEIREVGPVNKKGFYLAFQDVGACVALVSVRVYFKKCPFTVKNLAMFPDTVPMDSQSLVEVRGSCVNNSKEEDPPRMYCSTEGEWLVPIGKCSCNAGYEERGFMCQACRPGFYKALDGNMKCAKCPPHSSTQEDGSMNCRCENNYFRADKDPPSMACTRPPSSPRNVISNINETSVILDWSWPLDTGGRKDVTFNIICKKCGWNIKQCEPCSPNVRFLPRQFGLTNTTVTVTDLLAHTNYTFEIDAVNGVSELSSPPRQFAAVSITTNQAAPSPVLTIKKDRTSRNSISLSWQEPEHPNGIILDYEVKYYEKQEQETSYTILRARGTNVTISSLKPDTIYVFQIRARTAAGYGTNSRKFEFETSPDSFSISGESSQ

B1: 69 (antibody, V domains shown)
VH: QIQLVQSGSELKKPGASVKVSCKASGYTFTDYSMHWVRQAPGQGLKWMGWINTETGEPTYADDFKGRFVFSLDTSVSTAYLQISSLKAEDTAVYYCARIPLYYYGSRYWYFDVWGQGTTVTVSS
VL: DIQMTQSPSSLSASVGDRVTITCRASENIYRNLAWYQQKPGKAPKLLVYAATNLADGVPSRFSGSGSGTDYTLTISSLQPEDFATYYCQHFWGTPWTFGQGTKVEIK
modifications: synthetic humanized antibody heavy chain variable region sequence; synthetic humanized antibody light chain variable region sequence
B2: 84 (antibody, V domains shown)
VL: B1 VL with V48L, P80S
VH: B1 VH with I2V, K46E
modifications: constant regions without entry; synthetic humanized antibody light chain variable region sequence; synthetic humanized antibody heavy chain variable region sequence
B3: 82 (antibody, V domains shown)
VL: B1 VL with V48L, P80S
VH: B1 VH with I2V, D62Q, D63G, K65T
modifications: constant regions without entry; synthetic humanized antibody light chain variable region sequence; synthetic humanized antibody heavy chain variable region sequence
B4: 81 (antibody, V domains shown)
VL: B1 VL with V48L, P80S
VH: B1 VH with I2V, K46E, D62Q, D63G, K65T
modifications: constant regions without entry; synthetic humanized antibody light chain variable region sequence; synthetic humanized antibody heavy chain variable region sequence
B5: 83 (antibody, V domains shown)
VL: B1 VL with V48L, P80S
VH: B1 VH with D62Q, D63G, K65T
modifications: constant regions without entry; synthetic humanized antibody light chain variable region sequence; synthetic humanized antibody heavy chain variable region sequence

Biological target: T4, human EphA5 (Homo sapiens, UniProt P54756)
T4 construct: a protein of the extracellular region of each human Eph receptor fused with the SEAP protein and the His tag; made in house; host or cells: Expi293F cells (culture supernatant)
T4 sequence (P54756 25-573 limits assumed): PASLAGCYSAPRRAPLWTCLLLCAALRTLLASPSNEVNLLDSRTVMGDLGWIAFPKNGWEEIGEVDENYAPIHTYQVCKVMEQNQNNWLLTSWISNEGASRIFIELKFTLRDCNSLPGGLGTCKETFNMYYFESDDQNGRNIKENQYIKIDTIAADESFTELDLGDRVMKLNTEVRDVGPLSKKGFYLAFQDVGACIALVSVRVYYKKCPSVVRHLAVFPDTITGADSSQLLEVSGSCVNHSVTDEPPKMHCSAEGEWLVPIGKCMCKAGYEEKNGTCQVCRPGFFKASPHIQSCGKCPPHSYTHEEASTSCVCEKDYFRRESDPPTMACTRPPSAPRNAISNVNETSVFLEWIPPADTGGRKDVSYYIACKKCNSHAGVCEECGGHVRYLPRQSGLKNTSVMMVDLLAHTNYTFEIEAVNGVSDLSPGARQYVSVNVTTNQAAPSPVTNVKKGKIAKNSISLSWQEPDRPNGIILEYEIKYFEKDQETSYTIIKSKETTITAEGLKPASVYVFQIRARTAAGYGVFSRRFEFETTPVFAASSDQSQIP
Test: Selectivity ELISA of humanized antibodies for human Eph receptor
Assay type: binding
Details: coated protein 1 nM
Description: (§1) According to the method described in Example 7, a DNA sequence encoding the signal sequence and the extracellular region of each human Eph receptor (EphA1, EphA2, EphA3, EphA4, EphA5, EphA6, EphA7, EphA8, EphA10, EphB1, EphB2, EphB3, EphB4, and EphB6) was amplified by RT-PCR using tissue-derived total RNA and cloned into a pENTR1A vector (Invitrogen/Life Technologies) having a DNA sequence encoding SEAP protein and histidine tag. Next, the DNA sequence encoding the signal sequence and the extracellular region of each human Eph receptor, SEAP protein, and histidine tag was transferred to a pcDNA3.1_rfcB vector through LR reaction using Gateway System (Invitrogen/Life Technologies) to construct a vector for the expression of a protein of the extracellular region of each human Eph receptor fused with the SEAP protein and the His tag (referred to as “Eph receptor extracellular region-SEAP-His protein”) (this vector is referred to as “Eph receptor extracellular region-SEAP-His protein expression vector”).
(§2) Next, each human Eph receptor extracellular region-SEAP-His protein expression vector was transferred to Expi293F cells (Gibco/Thermo Fisher Scientific) using Expi293 expression system (Gibco/Thermo Fisher Scientific). After incubation (5% CO2, 37° C.) for 5 days, the culture supernatant was recovered and centrifuged at 1500 rpm at room temperature for 5 minutes. The centrifugation supernatant was filtered through a 0.45-μm filter (Merck Millipore).
(§3) Each anti-EphA4 monoclonal humanized antibody obtained in Example 16 was evaluated for its binding activity against each human Eph receptor according to the following steps.
(§4) Each well of a 96-well plate (Nunc) was coated with a rabbit anti-6-His antibody (Bethyl Laboratories). Each well was […] After washing with 0.05% Tween 20/PBS (Nacalai Tesque) three times, the SEAP-His protein of human EphA1, EphA2, EphA3, EphA4, EphA5, EphA6, EphA7, EphA8, EphA10, EphB1, EphB2, EphB3, EphB4, or EphB6 was added (final concentration: 1 nM) to each well and incubated at room temperature for 1 hour. After washing three times, the humanized antibody was added to each well and incubated at room temperature for 1 hour. After washing three times, a horseradish peroxidase-labeled donkey […] IgG antibody (Jackson ImmunoResearch Laboratories) was added thereto and incubated at room temperature for 1 hour. After washing three times, TMB Microwell Peroxidase Substrate System (Kirkegaard & Perry Laboratories (KPL)) was added to each well. After confirmation of moderate color development, an equal amount of a reaction stopping solution (1N H2SO4, Wako Pure Chemical Industries) was added to each well. The absorbance at 450 nm was read using a microplate reader (Thermo Fisher Scientific).

hEphA5-SEAP-: absorbance at 450 nm, percentage with respect to hEphA4-SEAP-His as 100% [%]	Molecule
5.6	B1
5.0	B2
6.5	B3
4.9	B4
5.8	B5

Biological target: T1, human EphB3
Test: as above
Assay type: binding
Details: coated protein 1 nM
Description: as §1, §2, §3, §4

hEphB3-SEAP-: absorbance at 450 nm, percentage with respect to hEphA4-SEAP-His as 100% [%]	Molecule
5.9	B1
4.8	B2
5.6	B3
4.9	B4
5.7	B5

Biological target: SEAP-His (Homo sapiens, UniProt P05187)
Sequence (P05187 23-511 limits assumed): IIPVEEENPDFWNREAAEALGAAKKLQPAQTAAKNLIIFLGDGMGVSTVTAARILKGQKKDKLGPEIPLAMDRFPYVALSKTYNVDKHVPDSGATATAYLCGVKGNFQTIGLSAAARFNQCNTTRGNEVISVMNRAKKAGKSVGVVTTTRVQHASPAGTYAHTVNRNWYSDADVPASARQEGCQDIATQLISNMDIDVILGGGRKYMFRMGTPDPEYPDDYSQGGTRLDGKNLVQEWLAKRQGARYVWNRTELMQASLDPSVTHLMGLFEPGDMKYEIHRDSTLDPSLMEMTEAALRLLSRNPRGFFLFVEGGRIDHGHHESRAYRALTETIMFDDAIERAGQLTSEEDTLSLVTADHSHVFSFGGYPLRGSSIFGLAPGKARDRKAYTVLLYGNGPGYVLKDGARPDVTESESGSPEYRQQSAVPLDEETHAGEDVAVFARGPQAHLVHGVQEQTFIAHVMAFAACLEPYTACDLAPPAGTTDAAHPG
Test: as above
Assay type: binding
Details: coated protein 1 nM
Description: as §1, §2, §3, §4

SEAP-His: absorbance at 450 nm, percentage with respect to hEphA4-SEAP-His as 100% [%]	Molecule
6.1	B1
5.1	B2
5.9	B3
5.0	B4
6.5	B5

Biological target: T2, human EphA7
Test: as above
Assay type: binding
Details: coated protein 1 nM
Description: as §1, §2, §3, §4

hEphA7-SEAP-: absorbance at 450 nm, percentage with respect to hEphA4-SEAP-His as 100% [%]	Molecule
5.3	B1
4.8	B2
5.4	B3
5.2	B4
5.5	B5

Biological target: T3, human EphA3
Test: as above
Assay type: binding
Details: coated protein 1 nM
Description: as §1, §2, §3, §4

hEphA3-SEAP-: absorbance at 450 nm, percentage with respect to hEphA4-SEAP-His as 100% [%]	Molecule
5.4	B1
4.9	B2
5.4	B3
5.0	B4
5.7	B5
